The values below come from article PMC2919099.

As a reminder, the Kd is the constant that tells how readily two partners part at equilibrium. Higher therefore signals weaker binding.

This data set addresses T1, DRH-3 (Caenorhabditis elegans (N2), UniProt Q93413 1-1119).
T1 sequence: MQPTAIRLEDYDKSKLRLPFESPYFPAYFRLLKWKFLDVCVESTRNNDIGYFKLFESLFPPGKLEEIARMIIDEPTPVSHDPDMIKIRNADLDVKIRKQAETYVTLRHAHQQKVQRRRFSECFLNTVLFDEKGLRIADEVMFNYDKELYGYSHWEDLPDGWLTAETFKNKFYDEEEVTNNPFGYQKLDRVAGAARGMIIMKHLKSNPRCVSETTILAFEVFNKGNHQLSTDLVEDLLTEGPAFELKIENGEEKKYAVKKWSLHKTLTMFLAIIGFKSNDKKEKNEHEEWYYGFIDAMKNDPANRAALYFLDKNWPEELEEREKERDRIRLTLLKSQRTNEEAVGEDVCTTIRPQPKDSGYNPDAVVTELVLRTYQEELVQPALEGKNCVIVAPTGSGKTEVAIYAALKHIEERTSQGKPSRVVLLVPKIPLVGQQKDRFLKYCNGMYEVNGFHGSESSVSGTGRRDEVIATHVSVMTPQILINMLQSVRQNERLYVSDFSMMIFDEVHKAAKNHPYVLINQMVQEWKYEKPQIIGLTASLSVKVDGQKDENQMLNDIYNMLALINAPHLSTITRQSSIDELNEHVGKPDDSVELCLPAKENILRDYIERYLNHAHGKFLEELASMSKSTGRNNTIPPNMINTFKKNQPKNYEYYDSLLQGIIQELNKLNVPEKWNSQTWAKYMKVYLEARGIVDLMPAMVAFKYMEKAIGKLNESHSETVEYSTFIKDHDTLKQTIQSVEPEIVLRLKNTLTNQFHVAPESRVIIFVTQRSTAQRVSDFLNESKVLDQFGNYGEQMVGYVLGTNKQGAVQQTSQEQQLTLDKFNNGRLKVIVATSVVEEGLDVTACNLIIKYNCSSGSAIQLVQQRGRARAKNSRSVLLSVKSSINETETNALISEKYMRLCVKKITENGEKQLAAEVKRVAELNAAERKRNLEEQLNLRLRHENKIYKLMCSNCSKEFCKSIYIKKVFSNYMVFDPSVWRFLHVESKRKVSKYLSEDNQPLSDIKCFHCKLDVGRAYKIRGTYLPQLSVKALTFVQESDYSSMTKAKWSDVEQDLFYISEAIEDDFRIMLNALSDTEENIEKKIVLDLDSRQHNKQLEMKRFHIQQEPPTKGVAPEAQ
As to the kind of experiment: EMSA. (In general: In EMSA bound probe runs differently from free probe, usually more slowly.)

B1: ds25 RNA (25 bp) (dsRNA)
RNA 1: GGGUAUAGACUGACUAGGAUCUCCC
RNA 2: GGGAGAUCCUAGUCAGUCUAUACCC
Molecule B1 had an equilibrium dissociation constant (Kd) of 11 nM.
